Assay results taken from US20230340145A1, “Methods of Treating High Risk Multiple Myeloma” (Janssen Biotech, Inc., priority 2017, published 2023).

Legend:
[1] = system: patients with relapsed or refractory multiple myeloma; experiment: CASTOR (NCT02136134) phase 3 trial, safety (adverse events); type: in vivo, human
From the text: The purpose of this study is to assess the effects of administration of daratumumab when combined with VELCADE® (bortezomib) and dexamethasone compared with VELCADE® (bortezomib) and dexamethasone alone, for participants with relapsed or refractory multiple myeloma. The study was a multicenter, randomized open-label active-controlled phase 3 trial. A prespecified interim analysis has been described in Palumpo et al., NEJM375:754-66, 2016. The clinical trial number for this study is NCT02136134. Daratumumab was administered as an IV infusion at a dose of 16 mg/kg once per week (days 1, 8, and 15) for cycles 1-3, once every 3 weeks (on Day 1) during cycles 4-8, and once every 4 weeks thereafter. […] Dexamethasone was administered orally at 20 mg on Days 1, 2, 4, 5, 8, 9, 11, and 12, for a total dose of 160 mg per cycle. Safety assessments included the evaluation of adverse events, clinical laboratory testing, vital signs, and electrocardiography. The adverse events were graded according to the National Cancer Institute Common Terminology Criteria for Adverse Events, version 4.03.

[2] = system: patients with relapsed or refractory multiple myeloma; experiment: POLLUX (NCT02076009) phase 3 trial, safety (adverse events); type: in vivo, human
From the text: The purpose of this study was to assess the effects of administration of daratumumab when combined with lenalinomide and dexamethasone compared with lenalinomide and dexamethasone alone, for participants with relapsed or refractory multiple myeloma. The study was a multicenter, randomized open-label active-controlled phase 3 trial. A prespecified interim analysis has been described in Dimopoulos et al., NEJM375: 1319-31, 2016. The clinical trial number for this study is NCT02076009. […] For the DRd, the dose of dexamethasone was split: dexamethasone was administered at a dose of 20 mg before infusion as prophylaxis for infusion-related reactions and 20 mg was administered the next day.

daratumumab
Patients with infusion-related reactions whose events occurred during the first infusion ([1]; % of patients with infusion-related reactions): 98.2%
Infusion-related reactions of any grade ([1]; associated with daratumumab, DVd arm): 45.3%
Grade 4 infusion-related events ([1]; in vivo): no grade 4 events
Infusion-related reaction: bronchospasm ([1]; in vivo): 9.1%
Infusion-related reaction: cough ([1]; in vivo): 7.0%
Infusion-related reaction: dyspnea ([1]; in vivo): 10.7%
Patients who discontinued treatment because of infusion-related reactions ([1]; in vivo): Two
Infusion-related reactions occurring during the first infusion ([2]; % of the reactions): 92%
Incidence of daratumumab infusion-related reactions of any grade ([2]; DRd arm): 47.7%
Infusion-related event of grade 4 or 5 ([2]; in vivo): no patient
Infusion-related reaction: cough ([2]; in vivo): 8.5%
Infusion-related reaction: dyspnea ([2]; in vivo): 8.5%
Infusion-related reaction: vomiting ([2]; in vivo): 5.7%
Patients who discontinued daratumumab because of a grade 3 infusion-related event ([2]; in vivo): One
